Assay [1] deals with T1, recombinant mouse sTNFR1 (mouse, UniProt P25118 30-212).
T1 sequence (looked up): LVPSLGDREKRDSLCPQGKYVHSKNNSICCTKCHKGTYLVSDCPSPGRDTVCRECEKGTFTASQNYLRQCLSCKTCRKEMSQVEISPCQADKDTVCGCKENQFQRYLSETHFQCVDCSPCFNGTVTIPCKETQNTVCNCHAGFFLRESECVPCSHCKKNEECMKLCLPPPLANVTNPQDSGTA
The assay can be described thus: cell-based or functional assay.

The target in assay [2] is T1, recombinant mouse sTNFR1. The assay can be described thus: SPR; Biacore T200, HBS-EP+, 25°C; mouse or human TNFR1 amine-coupled on CM5 chip; DMS5540 injected at 7 concentrations, 2-fold dilutions from 16 nM to 0.125 nM, 50 μl/min; 1:1 binding model. To be noted: both partners purified.

The values that follow come from PMC4564187, “Pharmacokinetic and Pharmacodynamic Characterisation of an Anti-Mouse TNF Receptor 1 Domain Antibody Formatted for In Vivo Half-Life Extension” (PLoS ONE, 2015).

B1: DMS5540 (bispecific antibody)
chain: EVQLLESGGGLVQPGGSLRLSCAASGFTFNRYSMGWLRQAPGKGLEWVSRIDSYGRGTYYEDPVKGRFSISRDNSKNTLYLQMNSLRAEDTAVYYCAKISQFGSNAFDYWGQGTQVTVSSASTDIQMTQSPSSLSASVGDRVTITCRASRPIGTMLSWYQQKPGKAPKLLILFGSRLQSGVPSRFSGSGSGTDFTLTISSLQPEDFATYYCAQAGTHPTTFGQGTKVEIKR
notes: anti-mouse TNFR1 VH dAb DOM1m-21-23; three residue linker (Ala-Ser-Thr); About 25 kDa; two human single variable domains on one chain; also called mouse TNFR1 antagonist; genetic fusion of DOM1m-21-23 with the AlbudAb DOM7h-11-12; source: E. coli BL21(DE3) strain derivatives, purified from culture supernatant (Protein-A, cation exchange, SEC when necessary)
For the molecule B1, the “EC50 of inhibition of mouse TNF-α (20 pg/ml) induced cytotoxicity in mouse L929 cells” value in assay [1] was 1.3 nM. In addition, in assay [2], the Kd (in general, the concentration at which binding is half-saturated) was determined as 0.27 nM; the koff (commonly the first-order rate constant of dissociation) came to 0.000217 s⁻¹; the kon (commonly the second-order rate constant of association) was determined as 798000 M⁻¹ s⁻¹.

B2: DOM1m-21-23 (antibody, V domains shown)
VH: EVQLLESGGGLVQPGGSLRLSCAASGFTFNRYSMGWLRQAPGKGLEWVSRIDSYGRGTYYEDPVKGRFSISRDNSKNTLYLQMNSLRAEDTAVYYCAKISQFGSNAFDYWGQGTQVTVSS
Turning to B2, the “EC50 of inhibition of mouse TNF-α (20 pg/ml) induced cytotoxicity in mouse L929 cells” value in assay [1] came out at 1.7 nM.
